Results on one molecule are retold here after US7118886 (HSC RESEARCH AND DEVELOPMENT LIMITED PARTNERSHIP, dated 2006).

This assay has as its target T1, GAL4 DNA binding domain fused to the five SH3 domains of Ese1 (amino acids 665-1213) (mouse, UniProt P04386 1-147 (Saccharomyces cerevisiae entry)).
T1 construct: Yeast two-hybrid bait; also called pGBT9Ese1A3.3; SH3 domain bait of Ese1
Put plainly: yeast two-hybrid screen with amino acids 665-1213 of Ese1 as bait.

B1: Mouse YNK1 partial protein, GAL4 activation domain library clone (other, not shown: large carriers)
chain: LRAEGAKFRAVLDKAVQADGQVKERYQSHRDTIALLCKPEPELNAAIPSANPAKTMQGSEVVSVLKSLLSNLDEIKKERESLENDLKSVNFDMTSKFLTALAQDGVINEEALSVTELDRIYGGLTSKVQESLKKQEGLLKNIQVSHQEFSKMKQSNNEANLREEVLKNLATAYDNFVELVANLKEGTKFYNELTEILVRFQNKCSDIVFARKTERDELLKDLQQSIAREPSAPSIPPPAYQSSPAAGHAAAPPTPAPRTMPPAKPQPPARPPPPVLPANRVPPASAAAAPAGVGTASAAPPQTPGSAPPPQAQGPPYPTYPGYPGYCQMPMPMGYNPYAYGQYNMPYPPVYHQSPGQAPYPGPQQPTYPFPQPPQQSYYPQQ
Consider B1, for which the binding result was “binds”.
